Molecular target: T1, recombinant insulin receptor ecto-domain protein rIR (R&D Systems #1444-IR) (UniProt P06213-2 28-944, limits assumed)
T1 construct: extracellular domain; Bought protein; also called soluble IR ectodomain
Assay: competitive BMEC binding assay: scFv-Fc pre-incubated with soluble ectodomain, then cell surface binding on BMECs

T1 sequence (P06213 other isoform, or with tags, fused parts or gaps limits assumed): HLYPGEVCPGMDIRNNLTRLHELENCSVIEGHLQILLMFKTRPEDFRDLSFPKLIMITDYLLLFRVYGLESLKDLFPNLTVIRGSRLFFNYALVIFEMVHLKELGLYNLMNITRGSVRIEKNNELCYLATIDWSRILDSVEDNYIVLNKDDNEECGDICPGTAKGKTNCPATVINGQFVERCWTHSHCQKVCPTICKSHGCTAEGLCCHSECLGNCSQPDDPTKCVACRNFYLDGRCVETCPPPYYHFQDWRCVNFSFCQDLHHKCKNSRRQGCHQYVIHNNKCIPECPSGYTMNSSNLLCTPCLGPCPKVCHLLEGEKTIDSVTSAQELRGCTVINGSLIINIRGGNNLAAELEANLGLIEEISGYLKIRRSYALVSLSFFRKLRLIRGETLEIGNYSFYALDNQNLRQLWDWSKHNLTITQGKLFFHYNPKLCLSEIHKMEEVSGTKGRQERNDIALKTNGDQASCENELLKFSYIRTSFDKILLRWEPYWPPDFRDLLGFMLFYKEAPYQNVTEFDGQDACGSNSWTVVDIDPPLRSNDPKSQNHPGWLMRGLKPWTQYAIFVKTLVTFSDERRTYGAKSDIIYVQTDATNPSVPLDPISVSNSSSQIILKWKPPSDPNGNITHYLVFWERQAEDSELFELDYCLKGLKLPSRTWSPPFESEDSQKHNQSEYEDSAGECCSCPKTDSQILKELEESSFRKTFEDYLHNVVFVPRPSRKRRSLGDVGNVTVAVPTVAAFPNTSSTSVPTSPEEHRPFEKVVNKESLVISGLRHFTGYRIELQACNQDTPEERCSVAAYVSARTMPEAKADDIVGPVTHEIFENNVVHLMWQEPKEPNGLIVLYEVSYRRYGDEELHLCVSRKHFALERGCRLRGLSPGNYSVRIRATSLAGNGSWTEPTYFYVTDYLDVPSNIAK

| binding result | Binder |
| --- | --- |
| no binding | 46.1-scFv-Fc (Fc fusion, scFv linked directly to rabbit IgG Fc, made in HEK293F cells; dimer; also called clone 46.1 scFv-Fc; not shown: rabbit IgG Fc region (pIRES-rabbit Fc vector)) QVQLQESGGGLAQPGGSLRLSCAASGFTFSGYWMHWVRQAPGKGLVWVSRIKGDGTDIEYADSVKGRFTISRDNAKNTLYLQMNSLRAEDTAVYYCARDLRQTHWFDSWGQGTLVTVSSGGGGSGGGGSGGGGSQSALTQDPAVSVALGQTVRITCQGDSLRSYYASWYQQKPGQAPVLVMYGENSRPSGIPDRFSGSNSGNTASLIITGAQAEDEADYYCSSRDTSGNHVLFGGGTKLTVLG |
| no binding | 17-scFv-Fc (Fc fusion, scFv linked directly to rabbit IgG Fc, made in HEK293F cells; dimer; also called clone 17 scFv-Fc; not shown: rabbit IgG Fc region (pIRES-rabbit Fc vector)) QVQLLQSAGALVQPGGSLRLSCAASGFTFSSSTMHWVRQAPGKGLEWVAVVSYDGNTQYYADSVKGRFTISRDNSKNTLSLQMNNLRAEDTAVYYCAGLWGSLLGYFQHWGQGTLVTVSSGGGGSGGGGSGGGGSDIQMTQSPSFLSASVGDRVTITCRASQGVNNYLAWYQQKPGKAPKLLIYAASTLQSGVPSSFSGSGSGTEFTLTISSLQPEDFATYFCQQAHSFPPTFGGGTKLEIKR |
